# B1: E6: wild-type HPV16 E6 oncoprotein stably expressed in HEK293T cells (protein, UniProt P03126 1-158, looked up)
# chain: MHQKRTAMFQDPQERPRKLPQLCTELQTTIHDIILECVYCKQQLLRREVYDFAFRDLCIVYRDGNPYAVCDKCLKFYSKISEYRHYCYSLYGTTLEQQYNKPLCDLLIRCINCQKPLCPEEKQRHLDKKQRFHNIRGRWTGRCMSCCRSSRTRRETQL
# modifications: full-length
# notes: wild-type HPV16 E6 oncoprotein stably expressed in HEK293T cells
# How the values were obtained:
# Type in all cases: cell-based, human
# [1] = system: HEK293T cells; test: Western blot of PDZ-proteins, p53 and E6AP in stable cell lines; details: source data of Figure 6 E, stable HEK293T cell line, IRES control line about 1
# [2] = system: HUWE1; test: Label-free MS proteome of stable HEK293T cell lines; details: stable HEK293T cells compared to control cell line, n = 3
# Excerpt: Proteins were identified by database searching using SequestHT (Thermo Fisher Scientific) with Proteome Discoverer 2.4 software (PD2.4, Thermo Fisher Scientific) on human FASTA database downloaded from SwissProt (reviewed, release 2020_11_27, 20304 entries, https://www.uniprot.org/). Precursor and fragment mass tolerances were set at 7 ppm and 0.6 Da respectively, and up to two missed cleavages were allowed. Oxidation (M, +15.995 Da) was set as variable modification, and Carbamidomethylation (C, +57.021 Da) as fixed modification. Peptides and proteins were filtered with a false discovery rate at 1%. Label-free quantification was based on the extracted ion chromatography intensity of the peptides. All samples were measured in technical triplicates. The measured extracted ion chromatogram (XIC) intensities were normalized based on median intensities of the entire dataset to correct minor loading differences. […] The detection threshold for enriched proteins in AP-MS experiments were analyzed above twofold enrichment with <0.01 P value. […] In case only a specific isoform of the detected protein contains a PBM, the identified peptide fragments were manually checked to check which isoform(s) were most likely detected. […]
# [3] = system: HEK293T cells; test: RT-qPCR of mRNA levels in stable cell lines; details: source data of Suppl Figure 4 B, stable HEK293T cell line; for DLG1 relative mRNA level / GFP relative mRNA level / MAGI1 relative mRNA level / RPLP0 relative mRNA level / SCRIB relative mRNA level / SNTB2 relative mRNA level / SNX27 relative mRNA level / SYNJ2BP relative mRNA level / TAX1BP3 relative mRNA level / p53 relative mRNA level: IRES control line about 1
# Procedure: Cells were plated on 6-well plates. When they reached confluency, RNA was isolated by using Qiagen RNeasy Mini kit (#74104). On-column DNase digestion was done by using Qiagen RNase-Free DNase Set (#79254). 2 μg total RNA per sample was transcribed to cDNA by using SuperScript IV kit (Invitrogen, #18091050) with random hexamer primers (Thermo Fisher #SO142) according to standard protocol. For qPCR, primers were designed with the help of Primer Blast (NCBI NIH, https://www.ncbi.nlm.nih.gov/tools/primer-blast/) choosing primers which recognize all common alternative transcripts of the given gene (Supplementary Fig 4). qPCR was done by using QuantiTect SyberGreen (Qiagen, #204143) and LightCycler II equipment (Roche). Standard ΔΔCt method was used to determine relative quantity to GAPDH. For further analyses GraphPad Prism 7 software was used.
# [4] = system: SCRIB; test: Western blot in stable HEK293T cell lines; details: for SCRIB relative protein level: source data of Figure 6 E, stable HEK293T cell line, IRES control line about 1
molecule,measurement,setting,value
B1,E6AP relative protein level,[1]; replicate 1,0.1109
same,MAGI1 relative protein level,[1]; replicate 1,1.104
same,SNX27 relative protein level,[1]; replicate 1,1.182
same,p53 relative protein level,[1]; replicate 1,0.0349
same,E6AP relative protein level,[1]; replicate 2,0.2467
same,MAGI1 relative protein level,[1]; replicate 2,0.7612
same,SNX27 relative protein level,[1]; replicate 2,0.5109
same,p53 relative protein level,[1]; replicate 2,0.03479
same,E6AP relative protein level,[1]; replicate 3,0.1353
same,MAGI1 relative protein level,[1]; replicate 3,0.6199
same,SNX27 relative protein level,[1]; replicate 3,0.8346
same,p53 relative protein level,[1]; replicate 3,0.01425
same,change of HUWE1 concentration,[2],decreased by threefold
same,DLG1 relative mRNA level,[3]; replicate 1,1.01
same,GFP relative mRNA level,[3]; replicate 1,0.3883
same,MAGI1 relative mRNA level,[3]; replicate 1,1.0722
same,RPLP0 relative mRNA level,[3]; replicate 1,0.9236
same,SCRIB relative mRNA level,[3]; replicate 1,0.9974
same,SNTB2 relative mRNA level,[3]; replicate 1,1.021
same,SNX27 relative mRNA level,[3]; replicate 1,1.06
same,SYNJ2BP relative mRNA level,[3]; replicate 1,0.9318
same,TAX1BP3 relative mRNA level,[3]; replicate 1,0.9978
same,p53 relative mRNA level,[3]; replicate 1,1.205
same,DLG1 relative mRNA level,[3]; replicate 2,0.9789
same,GFP relative mRNA level,[3]; replicate 2,0.361
same,MAGI1 relative mRNA level,[3]; replicate 2,1.194
same,RPLP0 relative mRNA level,[3]; replicate 2,0.9077
same,SCRIB relative mRNA level,[3]; replicate 2,0.9906
same,SNTB2 relative mRNA level,[3]; replicate 2,1.145
same,SNX27 relative mRNA level,[3]; replicate 2,1.0167
same,SYNJ2BP relative mRNA level,[3]; replicate 2,1.042
same,TAX1BP3 relative mRNA level,[3]; replicate 2,1.009
same,p53 relative mRNA level,[3]; replicate 2,1.147
same,DLG1 relative mRNA level,[3]; replicate 3,0.8765
same,GFP relative mRNA level,[3]; replicate 3,0.3884
same,MAGI1 relative mRNA level,[3]; replicate 3,0.864
same,RPLP0 relative mRNA level,[3]; replicate 3,1.0145
same,SCRIB relative mRNA level,[3]; replicate 3,0.879
same,SNTB2 relative mRNA level,[3]; replicate 3,0.9516
same,SNX27 relative mRNA level,[3]; replicate 3,0.8492
same,SYNJ2BP relative mRNA level,[3]; replicate 3,0.8794
same,TAX1BP3 relative mRNA level,[3]; replicate 3,0.9092
same,p53 relative mRNA level,[3]; replicate 3,0.9937
same,HPV16 E6 relative mRNA level,[3]; replicate 1,0.5053
same,HPV16 E6 relative mRNA level,[3]; replicate 2,0.4889
same,HPV16 E6 relative mRNA level,[3]; replicate 3,0.4569
same,SCRIB relative protein level,[4]; replicate 1,0.8205
same,SCRIB relative protein level,[4]; replicate 2,0.6696
same,SCRIB relative protein level,[4]; replicate 3,0.6225
same,decrease of SCRIB levels,"[4]; western blot, GAPDH normalized, stable HEK293T cells compared to control cells, n = 3",~ 30%

# Reference: paper PMC9482650, “Quantitative fragmentomics allow affinity mapping of interactomes” (Nature Communications, 2022)
